In patent US20210063414A1, “METHODS FOR PREVENTING AND/OR TREATING BONE LOSS CONDITIONS BY MODULATING IRISIN” (Dana-Farber Cancer Institute, Inc., priority 2018, published 2021):
Several values for one entry are separate records, joined by “and”; a condition that tells them apart may be missing. Equal values may be shown once.

Tests used:
epididymal fat (eWAT) = assay: Irisin injection in mice: thermogenic and creatine cycle gene mRNA in epididymal fat; assay type: in vivo; settings: irisin injections 6 days
Description: Eight week old mice were injected with indicated dose of irisin or 1 mg/kg CL316243 for 6 days. Epididymal fats (eWAT) were collected and indicated genes mRNA level was analyzed by qPCR. GATM is the first and rate-limiting step of creatine synthesis (Sandell et al. (2003) Proc. Natl. Acad. Sci. U.S.A. 100:4622-4627).
Certain materials and methods were used to generate the results described herein. For example, the data shown in FIG. 1A resulted from MLO-Y4 (an osteocyte-like cell line) cells treated with the indicated concentration of irisin and hydrogen peroxide for 4 hours. Cells were stained with Hoechst 33342 (ThermoFisher Scientific, catalog number H3570) and Eth-D1 (ThermoFisher Scientific, catalog number E1169) and analyzed to determine the percentage of cell death using ImageJ. […] Co-precipitated irisin was analyzed by immunoblot analysis against flag tag (Sigma Aldrich, catalog number A8592). The data shown in FIGS. 5A and 5B were generated from MLO-Y4 cells treated and analyzed as in the experiments used to generate the data shown in FIG. 2D, except that pre-treatment of 100 nM RGDS (FIG. 5A) or echistatin (R & D Systems Inc., catalog number 3202/100U) (FIG. 5B) for 10 minutes was performed before irisin treatment. […] Sclerostin mRNA level was analyzed by qPCR (FIG. 7A). […]

MLO-Y4 cells = assay: Anti-apoptosis assay: H2O2-induced cell death of MLO-Y4 osteocytes; assay type: cell-based
Description: Cells were stained with Hoechst 33342 and Eth-D1, and analyzed to determine the percentage of cell death. *: p<0.05, ***: p<0.001 vs 0.3 mM H2O2 treated condition. […] MLO-Y4 cells were seeded and incubated until 60% cell density. The cells were incubated with Freestyle293 medium for 4 hours and were treated with indicated concentrations of irisin for 16 hours. Sclerostin mRNA level was analyzed by qRT-PCR. Cyclophilin was used as a control house-keeping gene.
Certain materials and methods were used to generate the results described herein. […] Cells were stained with Hoechst 33342 (ThermoFisher Scientific, catalog number H3570) and Eth-D1 (ThermoFisher Scientific, catalog number E1169) and analyzed to determine the percentage of cell death using ImageJ. […] Co-precipitated irisin was analyzed by immunoblot analysis against flag tag (Sigma Aldrich, catalog number A8592). The data shown in FIGS. 5A and 5B were generated from MLO-Y4 cells treated and analyzed as in the experiments used to generate the data shown in FIG. 2D, except that pre-treatment of 100 nM RGDS (FIG. 5A) or echistatin (R & D Systems Inc., catalog number 3202/100U) (FIG. 5B) for 10 minutes was performed before irisin treatment. […] Sclerostin mRNA level was analyzed by qPCR (FIG. 7A). […] Epididymal fats were collected, RNAs were extracted from the tissues, and mRNA levels of the indicated genes were analyzed by qPCR. […]

B1: irisin: secreted cleaved form of FNDC5; recombinant human/mouse irisin with C-terminal his tag produced in HEK293 cells (protein)
chain: DSPSAPVNVTVRHLKANSAVVSWDVLEDEVVIGFAISQQKKDVRMLRFIQEVNTTTRSCALWDLEEDTEYIVHVQAISIQGQSPASEPVLFKTPREAEKMASKNKDEVTMKE
modifications: left off: small tags and cut ends
notes: secreted cleaved form of FNDC5; recombinant human/mouse irisin with C-terminal his tag produced in HEK293 cells
**Q.** Which results are given for B1?
**A.** expression of futile creatine cycle genes (GATM, CKMT2, CKB) (epididymal fat (eWAT)): also increased expression; mRNAs of classical thermogenic pathway genes (UCP1, DIO 2) (epididymal fat (eWAT)): increased expression; concentration as low as which irisin prevented osteocyte cell death (MLO-Y4 cells; MLO-Y4, 0.3 mM H2O2, dose dependent): 1 ng/ml and 70 pM; concentrations at which irisin reduced hydrogen peroxide-induced apoptosis (MLO-Y4 cells; MLO-Y4, hydrogen peroxide): 1 to 500 ng/mL
